US6852686B2, “Methods for ameliorating icthyosiform skin diseases” (The United States of America as represented by the …, priority 1999, dated 2005)
Where two headings read alike, the source gives them in different places.

Key:
TGase 1 [1] = molecular target: T1, TGase 1 (Homo sapiens, UniProt P22735); test: 14C-putrescine labeling of involucrin Gln residues by TGase 1; type: biochemical
T1 construct: Recombinant full-length human TGase 1 and TGase 3 enzymes were expressed in Sf9 cells by the BaculoGold system; made in house; host or cells: Sf9 insect cells, BaculoGold baculovirus system, pVL1392 vector
T1 sequence (P22735 1-817): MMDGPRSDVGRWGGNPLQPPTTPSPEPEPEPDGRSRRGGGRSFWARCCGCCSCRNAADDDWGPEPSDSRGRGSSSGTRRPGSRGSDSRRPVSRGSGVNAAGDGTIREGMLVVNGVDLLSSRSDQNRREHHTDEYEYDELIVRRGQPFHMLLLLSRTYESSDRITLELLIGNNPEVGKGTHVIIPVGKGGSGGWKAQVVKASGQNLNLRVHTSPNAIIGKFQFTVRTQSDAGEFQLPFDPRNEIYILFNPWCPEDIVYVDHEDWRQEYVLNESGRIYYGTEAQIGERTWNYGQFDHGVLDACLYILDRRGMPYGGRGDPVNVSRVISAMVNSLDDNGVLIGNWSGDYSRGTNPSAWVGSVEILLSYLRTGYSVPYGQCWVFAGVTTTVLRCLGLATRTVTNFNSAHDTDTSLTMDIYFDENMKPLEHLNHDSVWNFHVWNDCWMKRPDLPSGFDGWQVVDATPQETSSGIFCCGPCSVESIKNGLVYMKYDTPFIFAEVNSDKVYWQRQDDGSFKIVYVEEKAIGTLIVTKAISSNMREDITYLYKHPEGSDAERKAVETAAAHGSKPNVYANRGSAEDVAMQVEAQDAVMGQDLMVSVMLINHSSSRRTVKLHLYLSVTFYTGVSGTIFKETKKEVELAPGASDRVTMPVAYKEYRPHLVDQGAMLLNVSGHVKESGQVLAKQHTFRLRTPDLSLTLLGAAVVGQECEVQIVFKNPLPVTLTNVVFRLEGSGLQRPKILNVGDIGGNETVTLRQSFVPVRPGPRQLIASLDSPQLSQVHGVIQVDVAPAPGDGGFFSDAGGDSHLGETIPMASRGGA
Experimental: This was set far below saturating amounts on SLV in order to ensure that all enzyme was bound to the SLV.
After 4 h incubation at 37° C., the reactions were stopped by addition of EDTA to 10 mM and 100 μl 20% SDS, and vortexed. This mixture was precipitated and washed three times with acetone-triethylamine-acetic acid (90:5:5) (Konigsberg, W. H. and L. Henderson, Meth. Enzymol., 91: […] (1983), herein expressly incorporated by reference in its entirety) to remove the SDS and the lipids. After repeated washings with acetone, the pellet was redissolved in a buffer of 50 mM Tris-Cl (pH 7.5), and digested for 16 h at 37° C. with 2% (by weight) of modified trypsin (Boehringer Mannheim, Indianapolis, Ind.). Aliquots of 20 μg were resolved on a 250×4.6 mm Beckman Ultrasphere C18 HPLC column. Separated peaks were analyzed for radioactivity and peaks containing activity were attached to a solid support for sequencing as before (Steinert, P. M. and L. N. Marekov, J. Biol. Chem., 270: 17702-17711 (1995), herein expressly incorporated by reference in its entirety). As the peptide number 40 eluted by 50% acetonitrile (see FIG. 9) was too long for direct sequencing, it was subjected to limited proteolysis by dispase and was sequenced from four peptides isolated by HPLC chromatography as above. […]

[2] = tested on: synthetic lipid vesicles (SLV); test: Membrane association (binding) to synthetic lipid vesicles, SLV pelleted by ultracentrifugation
Experimental: Mixtures of dipalmitoyl-phosphatidylcholine, cholesterol, dipalmitoyl-phosphatidylserine (PS) and other lipids where indicated (all from Sigma, St. Louis, Mo.) were made in chloroform-methanol (95:5). In all cases, the mixtures contained 30% cholesterol. When the amounts of PS or other individual components were varied, phosphatidylcholine was added to make the mixture to 100%. Mixtures were made in 0.5 ml and contained 10 μmol of total lipids. The solvent was flushed away under a stream of N2, dried further under high vacuum for 4 h and then resuspended by vortexing in 0.5 ml of a buffer containing 50 mM Tris-Cl (pH 8.0), 100 mM NaCl, 3 mM NaN3, 5 mM DTT, and 200 mM sucrose. The mixture was sonicated on ice five times each for 1 min using a Branson 250 sonifier with micro probe tip, and allowed to stand at 23° C. to facilitate assembly of SLV. After 1 h the SLV were diluted with 0.5 ml of the above buffer without sucrose, and 200 μl aliquots were centrifuged at 100,000× g for 30 min in a Beckman Airfuge using the A-10 rotor. The top 175 μl was removed, and the pellet resuspended in another 150 μl of sucrose-free buffer. The final stock concentration was 11 μmol/ml.
In all cases, the buffer contained 50 mM Tris-HCl (pH 8.0), 100 mM NaCl, 1 mM DTT, 3 mM NaN3, and other additives where noted. Some mixtures also contained 1 mM CaCl2 or 2 mM EDTA. After mixing, the samples were centrifuged for 45 min at 100,000× g, and the protein content from 50 μl of supernatant was determined by amino acid analysis after acid hydrolysis. Data were usually not corrected for loss of SLV lipids, as in control experiments, cumulated losses were <4% as assayed by ^14C-phosphatidylcholine tracer, and thus neglected from the calculations.
(§1) The Ca^++ concentrations in the μM range were set by buffering free Ca^++ with chelators The desired Ca^++/chelator ratios were calculated by the WinMaxC 1.7 computer program (Bers, et al., Methods in Cell Biology Vol 40: A Practical Guide to the Study of Ca^2+ in Living Cells, Nuccitelli, R., ed., pp. 1-327 (1994), herein expressly incorporated by reference in its entirety), and were made by adding the required amounts of 1 M CaCl2 to 0.2 M stock solutions of the following chelators at pH 8.0. Final chelator concentrations in the samples were 10 mM in all cases. Sodium citrate was the chelator for the 20-500 μM Ca^++ range; sodium nitrilotriacetate for the 1-20 μM Ca^++ range; and sodium 1,2-bis(aminophenoxy)ethane-N,N,N′,N′ tetraacetate for the 0.1-1 μM Ca^++ range.

TGase 1 [3] = molecular target: T1, TGase 1; test: Kinetic parameters of 14C-putrescine incorporation by TGase 1; type: biochemical; conditions: for Km: KM pertains to the protein substrate, read-out: KM(app); for Vmax / kcat(putrescine): putrescine incorporation, 37° C.
Excerpt: One possibility is that this KM increase is due to the reduced diffusional mobility of the enzyme after attachment to the SLV. […] (Table 1). One reason for this is that a reduced access to many of the Gln residues occurs after anchorage of the enzyme. On the other hand, the Vmax value for the recombinant SPR2 substrate was almost unchanged.
The reaction rates were quantified by measuring the incorporated radioactivity as before (Thomas, M. V., Cellular Calcium, McCormack, et al., eds., pp. 115-123 (1991), herein expressly incorporated by reference in its entirety). Kinetic constants were obtained using the curve-fitting and regression analysis Sigmaplot 4.0 software. All data points represent the means of three measurements, each performed in triplicate.

TGase 1 [4] = molecular target: T1, TGase 1; test: Free Ca++ dependence of 14C-putrescine incorporation by TGase 1; type: biochemical
Experimental: Activity values are given as percent of the values measured at 1 mM Ca^++. […] Points represent the means±s.d. of three independent measurements.
The optimal Ca^++ ion concentration required for the TGase 1 reaction has not been measured for any substrate. Standard in vitro solution assays contain 1-5 mM Ca^++. (Folk, J. E. and J. S. Finlayson, Adv. Protein Chem., 31: 1-133 (1977); Folk, J. E., Adv. Enzymol. Related Areas Mol. Biol., 54: 1-56 (1983); and Lorand, L. S. M. Conrad, Mol. Cell Biochem., 58: 9-35 (1984)). […] (FIG. 6, open symbols). […] (FIG. 2).
as §1

[5] = SLV containing 15% PS compared to solubilized TGase 1 and soluble involucrin

B1: Involucrin: recombinant purified human involucrin expressed in E. coli (protein)
chain: MSQQHTLPVTLSPALSQELLKTVPPPVNTHQEQMKQPTPLPPPCQKVPVELPVEVPSKQEEKHMTAVKGLPEQECEQQQKEPQEQELQQQHWEQHEEYQKAENPEQQLKQEKTQRDQQLNKQLEEEKKLLDQQLDQELVKRDEQLGMKKEQLLELPEQQEGHLKHLEQQEGQLKHPEQQEGQLELPEQQEGQLELPEQQEGQLELPEQQEGQLELPEQQEGQLELPEQQEGQLELPQQQEGQLELSEQQEGQLELSEQQEGQLKHLEHQEGQLEVPEEQMGQLKYLEQQEGQLKHLDQQEKQPELPEQQMGQLKHLEQQEGQPKHLEQQEGQLEQLEEQEGQLKHLEQQEGQLEHLEHQEGQLGLPEQQVLQLKQLEKQQGQPKHLEEEEGQLKHLVQQEGQLKHLVQQEGQLEQQERQVEHLEQQVGQLKHLEEQEGQLKHLEQQQGQLEVPEQQVGQPKNLEQEEKQLELPEQQEGQVKHLEKQEAQLELPEQQVGQPKHLEQQEKHLEHPEQQDGQLKHLEQQEGQLKDLEQQKGQLEQPVFAPAPGQVQDIQPALPTKGEVLLPVEHQQQKQEVQWPPKHK
With B1 the putrescine incorporated (TGase 1 [1]; membrane-bound TGase 1 (Sf9 particulate membranes or SLV with 15% PS)) was “approximately 1 mol of putrescine/mol of invol”, the putrescine incorporated (TGase 1 [1]; solubilized recombinant TGase 1, no membranes or SLV, 20 mM putrescine, 4 h, 37° C.) was “about 20 mol of putrescine incorporated/mol of involucrin” and the “Ca++ concentration above which binding to SLV occurs” value ([2]; SLV containing 12-18% phosphatidylserine) was “above 1 μM”. The “amount saturating SLV” value ([2]; SLVs containing 15-30% PS) was 0.43±0.02 nmol involucrin/μmol lipid, the “free Ca++ concentration at which binding to SLVs was first detected” value ([2]; SLVs containing 15 mol % PS) was 1 :M and the “free Ca++ concentration for maximal binding to SLVs” value ([2]; SLVs containing 15 mol % PS, saturating involucrin) was over 20 µM. The “decrease of KM” value (TGase 1 [3]; [5]) was “approximately 40 fold”, the “decrease of kcat value” (TGase 1 [3]; [5]) was 200 fold and the “kinetic parameters as a substrate” value (TGase 1 [3]; SLV formulated in the absence of PS) was “immeasurably low”. For the same molecule, the Km (TGase 1 [3]; SLV-bound TGase 1 (15% PS)) was 2.9 ± 0.4 µM, the Vmax (TGase 1 [3]; SLV-bound TGase 1 (15% PS)) was 2.4 ± 0.4 pmol/min and the “kcat(putrescine)” value (TGase 1 [3]; SLV-bound TGase 1 (15% PS)) was 0.0425 s⁻¹. For the same molecule, the Vmax (TGase 1 [3]; Solubilized TGase 1, 0.94 pmol) was 482 ± 37 pmol/min, the “kcat(putrescine)” value (TGase 1 [3]; Solubilized TGase 1, 0.94 pmol) was 8.55 s⁻¹ and the Km (TGase 1 [3]; Solubilized TGase 1) was 114 ± 19 µM.

B2: TGase 1: recombinant full-length human transglutaminase 1 expressed in Sf9 cells by baculovirus, solubilized or bound to SLV (protein)
chain: MMDGPRSDVGRWGGNPLQPPTTPSPEPEPEPDGRSRRGGGRSFWARCCGCCSCRNAADDDWGPEPSDSRGRGSSSGTRRPGSRGSDSRRPVSRGSGVNAAGDGTIREGMLVVNGVDLLSSRSDQNRREHHTDEYEYDELIVRRGQPFHMLLLLSRTYESSDRITLELLIGNNPEVGKGTHVIIPVGKGGSGGWKAQVVKASGQNLNLRVHTSPNAIIGKFQFTVRTQSDAGEFQLPFDPRNEIYILFNPWCPEDIVYVDHEDWRQEYVLNESGRIYYGTEAQIGERTWNYGQFDHGVLDACLYILDRRGMPYGGRGDPVNVSRVISAMVNSLDDNGVLIGNWSGDYSRGTNPSAWVGSVEILLSYLRTGYSVPYGQCWVFAGVTTTVLRCLGLATRTVTNFNSAHDTDTSLTMDIYFDENMKPLEHLNHDSVWNFHVWNDCWMKRPDLPSGFDGWQVVDATPQETSSGIFCCGPCSVESIKNGLVYMKYDTPFIFAEVNSDKVYWQRQDDGSFKIVYVEEKAIGTLIVTKAISSNMREDITYLYKHPEGSDAERKAVETAAAHGSKPNVYANRGSAEDVAMQVEAQDAVMGQDLMVSVMLINHSSSRRTVKLHLYLSVTFYTGVSGTIFKETKKEVELAPGASDRVTMPVAYKEYRPHLVDQGAMLLNVSGHVKESGQVLAKQHTFRLRTPDLSLTLLGAAVVGQECEVQIVFKNPLPVTLTNVVFRLEGSGLQRPKILNVGDIGGNETVTLRQSFVPVRPGPRQLIASLDSPQLSQVHGVIQVDVAPAPGDGGFFSDAGGDSHLGETIPMASRGGA
In the case of B2, the “saturating amount on SLV” value ([2]; SLV composed of 15% PS) is reported as “approximately 0.9 nmol of TGase 1/μmol of lipid”, the “binding to SLVs” value ([2]; TGase 1 purified by the NH2OH—HCl method (S-acyl adducts hydrolysed)) is reported as “unable to bind to SLVs” and the “binding to SLVs” value ([2]; TGase 1 purified from Triton X-100 extracts (lipid adducts retained)) is reported as “spontaneously associates with SLVs”. The “Ca++ concentration above which enzyme becomes active in cross-linking” value (TGase 1 [4]; TGase 1 bound to SLV) was “above 10 μM”, the “lowering of Ca++ concentration required for cross-linking of involucrin versus soluble enzyme and substrate” value (TGase 1 [4]; membrane-bound versus soluble TGase 1) was 10 fold and the “Ca++ concentration above which enzyme becomes active in cross-linking” value (TGase 1 [4]; solution assays) was “above 100 μM”.
